Experimental data as given in patent US20250215467A1, “L-THREONINE TRANSALDOLASES AND USES THEREOF” (University of Delaware, priority 2022, published 2025).

Test: In vitro CAR-TTA coupled assay with HPLC analysis
Assay type: biochemical
Details: CAR plus 2 μM PbTTA, 100 mM L-Thr, 20 h
Method: In vitro CAR activity assays were performed as previously reported (Gopal et al. biorxiv, 2022) using 2 mM NADPH and 2 mM ATP, 20 mM MgCl2, and 0.75 μM CAR and E. coli pyrophosphatase. For in vitro coupling with the CAR and TTA, the same in vitro CAR assay was performed with the addition of 2 μM TTA, 0.4 mM PLP, and 100 mM L-Thr; however, rather than monitoring the reaction with the plate reader, the plate was left shaking at 1000 RPM with an orbital radius of 1.25 mm at 30° C. overnight. The reaction was then quenched after 20 h with 100 μL of 3:1 methanol:2 M HCl. The supernatant was then separated from the protein precipitate using centrifugation and analyzed via HPLC.
Metabolites of interest were quantified via high-performance liquid chromatography (HPLC) using an Agilent 1260 Infinity model equipped with a Zorbax Eclipse Plus-C18 column. To quantify aldehyde and β-OH-nsAAs, an initial mobile phase of solvent A/B=95/5 was used (solvent A, water+0.1% TFA; solvent B, acetonitrile+0.1% TFA) and maintained for 5 min. A gradient elution was performed (A/B) as follows: gradient from 95/5 to 50/50 for 5-12 min, gradient from 50/50 to 0/100 for 12-13 min, and gradient from 0/100 to 95/5 for 13-14 min. A flow rate of 1 mL min-1 was maintained, and absorption was monitored at 210, 250 and 280 nm. […]

B1: PbTTA: L-threonine transaldolase, SEQ ID NO: 16, Parachlamydiales bacterium, MBN2478762.1 (protein, listed as Parachlamydiales bacterium)
chain: METSLKDFETILHLINKEEIDSNDTIHMTANENIMSKLSKHYLKSTLSYRYHVGMFDDQKNLTVSRSCLIKNSLMLRCLSPIFLLEQQAREYVKKMFFAEYADFRPLSGMHTVFCILSTLTKPNDRVYVFTTESVGHAATVSLLKSLGRKVSFIPFCEKKLDIDLEKLSKQILIEKPNAILFDFGTPFYPLPIREIREIVGNDVKMIYDASHVLGLIAGGQFQNPLLEGCDVLIGNTHKTFPGPQKGMILYKNKSLGKEIATEIFKSAISAQHTHHAIALYVTIIEMYIHGKEYANQIIKNNHALSQALINEGFKIFKRKNQFSLSHMIAITGDFPIDHHVACADLHNSNISTNSRILYDFPAVRIGVQEVTRKGMKEKDMVQLAKFFKEIILDRKNISSKIKEFNNKFNSIEYSLDEIYEKLF
For B1, the “β-OH-nsAA production from 4-azido-benzoic acid, in vitro CAR-TTA coupling” value was “successfully produced a β-OH-nsAA product”.
